Where “and” joins values, the source holds several entries; their conditions need not be identical. Equal values may be shown once.
How the values were obtained:
[1] = target: biotinylated mouse anti dengue IgG (clone 13C11); test: Dengue IgM indirect ELISA: Prep A 1/10 premixed with 13C11-Biotin 1/10,000, dengue 2 antigen plate, HRP sheep anti Human IgM
[2] = target: biotinylated mouse anti dengue IgG (clone 13C11); test: Dengue IgM indirect ELISA: Prep A 1/1000 premixed with 13C11-Biotin 1/10,000, dengue 2 antigen plate, HRP sheep anti Human IgM
[3] = target: biotinylated mouse anti dengue IgG (clone 13C11); test: Dengue IgM indirect ELISA: Prep A 1/100 premixed with 13C11-Biotin 1/10,000, dengue 2 antigen plate, HRP sheep anti Human IgM
[4] = target: biotinylated mouse anti dengue IgG (clone 13C11); test: Dengue IgM capture ELISA: Prep A […] premixed with 13C11-Biotin 1.6 µg/ml, sheep anti human IgM strips, dengue antigen with anti dengue-HRP tracer
[5] = target: biotinylated mouse anti dengue IgG (clone 13C11); test: Dengue IgM capture ELISA: Prep B 1.0 µg/ml premixed with 13C11-Biotin 1.6 µg/ml, sheep anti human IgM strips, dengue antigen with anti dengue-HRP tracer

Streptavidin-CH3µ Preparation A, sequence (chain): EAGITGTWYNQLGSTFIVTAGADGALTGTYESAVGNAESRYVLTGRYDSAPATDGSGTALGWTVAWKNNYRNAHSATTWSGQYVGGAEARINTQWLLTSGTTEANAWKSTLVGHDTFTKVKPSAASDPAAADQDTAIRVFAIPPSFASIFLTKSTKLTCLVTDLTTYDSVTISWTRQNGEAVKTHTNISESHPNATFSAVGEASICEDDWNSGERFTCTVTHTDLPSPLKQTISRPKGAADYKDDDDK
Streptavidin-CH3µ Preparation B, sequence (chain): as above

In the case of Streptavidin-CH3µ Preparation A, the A450 [1] is reported as 1.19 absorbance and 1.11 absorbance, the A450 [2] is reported as 0.212 absorbance and 0.183 absorbance and the A450 [3] is reported as 1.07 absorbance and 1.08 absorbance. The A450 [4] was 1.91 absorbance and 1.85 absorbance.
For Streptavidin-CH3µ Preparation B, the A450 [5] was 1.2 absorbance and 1.34 absorbance.

Reference: patent US7026446
